Results: article PMC8444450 (The Journal of Biological Chemistry, 2021)

Target: SARS-CoV-2 spike receptor-binding domain (amino acids 333–529), bacteria-expressed and refolded (SARS-CoV-2, parental (WT) RBD, UniProt P0DTC2)
Test: SPR
Settings: both partners purified

B1: sybody Sb68 (VHH)
VHH: QVQLVESGGGSVQAGGSLRLSCAASGSISSITYLGWFRQAPGKEREGVAALITVNGHTYYADSVKGRFTVSLDNAKNTVYLQMNSLKPEDTALYYCAAAAWGYAWPLHQDDYWYWGQGTQVTVSA
B1 showed a Kd of 6.8 to 62.7 nM.
